Data as given in patent US20250051463A1, “CD123 ANTIBODY-DRUG CONJUGATES AND METHODS OF USING THE SAME” (ASTRAZENECA AB, priority 2023, published 2025).

Columns and labels:
HPAEC = experiment: CellTiter-Glo cell viability, 3 days; format: cell-based
Method: (§1) The CD123-expressing endothelial cell lines HUVEC and HPAEC and control cell lines RPMI-8226 (high CD123 expressing) and K562 (low expressing or negative for CD123) were cultured and co-incubated with Comparator-1 ADC, NIP228-SG3932 (isotype control for HT12-GL-SG3932) HT12-GL-SG3932, or CD123 mAb (HT12-GL) for 3 days at concentrations ranging from 0.0017 to 520 μg/mL for CD123 mAb, HT12-GL-SG3932, or NIP228-SG3932) or 0.0010 to 320 μg/mL for IMGN-IGN). Cell viability was assessed by CellTiter-Glo Cell Viability Assay and IC50 for viability was calculated (when possible) for each compound for each cell line. Expression of CD123 was assessed by western blot surface expression or by flow cytometry (FIG. 9C-9H).

HUVEC = experiment: CellTiter-Glo cell viability, 3 days; format: cell-based
Method: as §1

K562 = experiment: CellTiter-Glo cell viability, 3 days; format: cell-based
Method: as §1

RPMI-8226 = experiment: CellTiter-Glo cell viability, 3 days; format: cell-based
Method: as §1

[1] = system: subcutaneous EOL-1 tumors; experiment: EOL-1 subcutaneous xenograft study; format: in vivo, Nude mice; conditions: 0.24 mg/kg at a single dose
Method: EOL-1 cells that express about 2,000 CD123/IL3Rα per cell were maintained in the RPMI-1640 medium containing 10% heat-inactivated FBS and were cultured in a humidified atmosphere of 5% CO2 and at a temperature of 37° C. On the day of implantation, cells were spun down at 1500 rpm for 5 minutes, counted, and resuspended to a final concentration of 50×10^6 cells/mL in PBS. Female Nude mice were each injected subcutaneously in the right flank with 10×10^6 cells in 200 μL volume. When average tumor volume reached ˜150-250 mm^3 on Day 9, mice were randomized into treatment groups using the Matched Distribution method built into the Study Director software.
Test and control ADC were diluted from a stock solution with vehicle buffer (20 mM histidine, 240 mM sucrose, 0.02% Polysorbate 80, pH 6.0) and were administered as a single intravenous (IV) injection according to body weight.
Tumor volume and body weight were measured twice weekly from Day 6 to Day 60 after EOL-1 implant. Tumors were measured by caliper and the volumes of tumors were calculated using the following formula:
Tumor Volume=[length (mm)×width (mm)^2]/2; where the length and the width are the longest and shortest diameters of the tumor respectively.

B1: pivekimab sunirine (conjugate, chains of the INN, looked up)
VH: QVQLVQSGAEVKKPGASVKVSCKASGYIFTSSIMHWVRQAPGQGLEWIGYIKPYNDGTKYNEKFKGRATLTSDRSTSTAYMELSSLRSEDTAVYYCAREGGNDYYDTMDYWGQGTLVTVSS
VL: EIQMTQSPSSLSASVGDRVTITCRASQDINSYLSWFQQKPGKAPKTLIYRVNRLVDGVPSRFSGSGSGNDYTLTISSLQPEDFATYYCLQYDAFPYTFGQGTKVEIK
modifications: sunirine payload
With B1 the “Cytotoxicity (Viability IC50) HPAEC” value (HPAEC) was 6.0 µg/mL, the “Cytotoxicity (Viability IC50) HUVEC” value (HUVEC) was 6.9 µg/mL and the “Cytotoxicity (Viability IC50) K562” value (K562) was 10.3 µg/mL. For the same molecule, the “Cytotoxicity (Viability IC50) RPMI-8226” value (RPMI-8226) was 53.9 µg/mL and the “anti-tumor effect (tumor volume)” value [1] was “complete tumor regression”.
